In patent US20240124563A1:

What was measured:
[1] = target: human MSLN protein endogenously expressed on tumor cells (Hela, OVCAR3) (human) (UniProt Q13421); experiment: FACS, OVCAR3 cells, antibody 4 nM
[2] = target: human MSLN-R3-3 polypeptide (purchased from GL Biochem, Cat. No. 406676) (human); experiment: ELISA, antibody 1 nM
[3] = target: human MSLN-R3-rFc protein (human) (UniProt Q13421); experiment: ELISA, antibody 1 nM
[4] = target: human MSLN full-length protein, recombinant, on CHO-K1 or HEK293T cells (human) (UniProt Q13421); experiment: competitive FACS on CHO-K1-human MSLN-2C8 cells vs Biotin-Tab142; competitor at 20 nM
[5] = target: human MSLN full-length protein on transfected cells (CHO-K1-hMSLN clones 2C8, 2D11, 2C5; HEK293T-hMSLN clones B8, 2A4, 2A7) (human) (UniProt Q13421); experiment: FACS, CHO-K1-hMSLN-2C8 cells, antibody 20 nM
[6] = target: monkey MSLN full-length protein on HEK293T cells (monkey); experiment: FACS, HEK293T-monkey-MSLN cells, antibody 0.032 nM
[7] = target: human MSLN protein endogenously expressed on tumor cells (Hela, OVCAR3) (human) (UniProt Q13421); experiment: FACS, OVCAR3 cells
[8] = target: monkey MSLN full-length protein on HEK293T cells (monkey); experiment: FACS, HEK293T-monkey-MSLN cells, antibody 0.16 nM
[9] = target: human MSLN-R3-rFc protein (human) (UniProt Q13421); experiment: ELISA, antibody 100 nM
[10] = target: human MSLN full-length protein, recombinant, on CHO-K1 or HEK293T cells (human) (UniProt Q13421); experiment: competitive FACS on CHO-K1-human MSLN-2C8 cells vs Biotin-Tab142; competitor at 0.032 nM
[11] = target: human MSLN full-length protein, recombinant, on CHO-K1 or HEK293T cells (human) (UniProt Q13421); experiment: competitive FACS on CHO-K1-human MSLN-2C8 cells vs Biotin-Tab131; competitor at 0.064 nM
[12] = target: human MSLN-R3-rFc protein (human) (UniProt Q13421); experiment: ELISA, antibody 4 nM
[13] = target: human MSLN full-length protein, recombinant, on CHO-K1 or HEK293T cells (human) (UniProt Q13421); experiment: competitive FACS on CHO-K1-human MSLN-2C8 cells vs Biotin-Tab142; competitor at 0.00256 nM
[14] = target: human MSLN full-length protein on transfected cells (CHO-K1-hMSLN clones 2C8, 2D11, 2C5; HEK293T-hMSLN clones B8, 2A4, 2A7) (human) (UniProt Q13421); experiment: FACS, CHO-K1-hMSLN-2C8 cells, antibody 0.032 nM
[15] = target: human MSLN full-length protein, recombinant, on CHO-K1 or HEK293T cells (human) (UniProt Q13421); experiment: competitive FACS on CHO-K1-human MSLN-2C8 cells vs Biotin-Tab142; competitor at 0.0128 nM
[16] = target: human MSLN full-length protein on transfected cells (CHO-K1-hMSLN clones 2C8, 2D11, 2C5; HEK293T-hMSLN clones B8, 2A4, 2A7) (human) (UniProt Q13421); experiment: FACS, CHO-K1-hMSLN-2C8 cells, antibody 100 nM
[17] = target: human MSLN full-length protein on transfected cells (CHO-K1-hMSLN clones 2C8, 2D11, 2C5; HEK293T-hMSLN clones B8, 2A4, 2A7) (human) (UniProt Q13421); experiment: FACS, CHO-K1-hMSLN-2C8 cells, antibody 4 nM
[18] = target: human MSLN full-length protein, recombinant, on CHO-K1 or HEK293T cells (human) (UniProt Q13421); experiment: competitive FACS on CHO-K1-human MSLN-2C8 cells vs Biotin-Tab142; competitor at 0.16 nM
[19] = target: human MSLN full-length protein, recombinant, on CHO-K1 or HEK293T cells (human) (UniProt Q13421); experiment: competitive FACS on CHO-K1-human MSLN-2C8 cells vs Biotin-Tab142; competitor at 0.32 nM
[20] = target: monkey MSLN full-length protein on HEK293T cells (monkey); experiment: FACS, HEK293T-monkey-MSLN cells, antibody 0.00128 nM
[21] = target: monkey MSLN full-length protein on HEK293T cells (monkey); experiment: FACS, HEK293T-monkey-MSLN cells, antibody 0.8 nM
[22] = target: human MSLN full-length protein, recombinant, on CHO-K1 or HEK293T cells (human) (UniProt Q13421); experiment: FACS, HEK293T-hMSLN-B8 cells
[23] = target: human MSLN full-length protein, recombinant, on CHO-K1 or HEK293T cells (human) (UniProt Q13421); experiment: competitive FACS on CHO-K1-human MSLN-2C8 cells vs Biotin-Tab142; competitor at 0.0064 nM
[24] = target: human MSLN full-length protein, recombinant, on CHO-K1 or HEK293T cells (human) (UniProt Q13421); experiment: competitive FACS on CHO-K1-human MSLN-2C8 cells vs Biotin-Tab142; competitor at 8 nM
[25] = target: monkey MSLN full-length protein on HEK293T cells (monkey); experiment: FACS, HEK293T-monkey-MSLN cells, antibody 4 nM
[26] = target: human MSLN protein endogenously expressed on tumor cells (Hela, OVCAR3) (human) (UniProt Q13421); experiment: FACS, Hela cells
[27] = target: human MSLN full-length protein, recombinant, on CHO-K1 or HEK293T cells (human) (UniProt Q13421); experiment: competitive FACS on CHO-K1-human MSLN-2C8 cells vs Biotin-Tab142; competitor at 0.8 nM
[28] = target: human MSLN protein endogenously expressed on tumor cells (Hela, OVCAR3) (human) (UniProt Q13421); experiment: FACS, OVCAR3 cells, antibody 0.2 nM
[29] = target: human MSLN full-length protein, recombinant, on CHO-K1 or HEK293T cells (human) (UniProt Q13421); experiment: FACS, CHO-K1-hMSLN-2C8 cells

Sequence of human MSLN protein endogenously expressed on tumor cells (Hela, OVCAR3) (human) (Q13421 other isoform, or with tags, fused parts or gaps): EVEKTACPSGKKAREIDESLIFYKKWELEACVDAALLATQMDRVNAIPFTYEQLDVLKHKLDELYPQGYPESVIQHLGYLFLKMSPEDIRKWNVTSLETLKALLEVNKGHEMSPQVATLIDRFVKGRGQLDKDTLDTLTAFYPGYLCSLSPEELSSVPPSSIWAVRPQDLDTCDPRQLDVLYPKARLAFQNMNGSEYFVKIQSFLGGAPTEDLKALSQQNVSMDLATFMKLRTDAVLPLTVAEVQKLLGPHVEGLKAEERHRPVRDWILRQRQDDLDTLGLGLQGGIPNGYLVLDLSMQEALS
Sequence of human MSLN full-length protein, recombinant, on CHO-K1 or HEK293T cells (human) (Q13421 other isoform, or with tags, fused parts or gaps limits assumed): as the sequence (Q13421 other isoform, or with tags, fused parts or gaps) above, with R14P counted along it
Sequence of human MSLN full-length protein on transfected cells (CHO-K1-hMSLN clones 2C8, 2D11, 2C5; HEK293T-hMSLN clones B8, 2A4, 2A7) (human) (Q13421 other isoform, or with tags, fused parts or gaps limits assumed): as the sequence (Q13421 other isoform, or with tags, fused parts or gaps) above, with R14P counted along it
Sequence of human MSLN-R3-3 polypeptide (purchased from GL Biochem, Cat. No. 406676) (human) (peptide, as listed by the source): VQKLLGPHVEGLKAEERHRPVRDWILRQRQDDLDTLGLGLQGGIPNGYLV

hIgG1 (antibody)
FACS signal (MFI) [1]: 74
OD450 nm [2]: 0.06
OD450 nm [3]: 0.09
MFI of Biotin-Tab142 [4]: 42600
FACS signal (MFI) [5]: 156
FACS signal (MFI) [6]: 125
Max MFI [7]: 147
FACS signal (MFI) [8]: 85
OD450 nm [9]: 0.21
MFI of Biotin-Tab142 [10]: 43700
MFI of Biotin-Tab131 [11]: 12500
OD450 nm [12]: 0.15
MFI of Biotin-Tab142 [13]: 24300
FACS signal (MFI) [14]: 59
MFI of Biotin-Tab142 [15]: 24100
FACS signal (MFI) [16]: 72
FACS signal (MFI) [17]: 110
MFI of Biotin-Tab142 [18]: 43600
MFI of Biotin-Tab142 [19]: 23300
FACS signal (MFI) [20]: 84
FACS signal (MFI) [21]: 87
Max MFI [22]: 77
MFI of Biotin-Tab142 [23]: 43700
MFI of Biotin-Tab142 [24]: 23000
FACS signal (MFI) [25]: 85
Max MFI [26]: 75
MFI of Biotin-Tab142 [27]: 44300
MFI [28]: 106
Max MFI [29]: 80
